What was measured:
human MAdCAM protein = target: T1, human MAdCAM protein (human, UniProt Q13477 19-317); assay: Octet
T1 construct: used for Octet, SPR, ELISA and plate capture; construct not described; also called recombinant human MAdCAM; soluble monomeric human MAdCAM
T1 sequence (looked up): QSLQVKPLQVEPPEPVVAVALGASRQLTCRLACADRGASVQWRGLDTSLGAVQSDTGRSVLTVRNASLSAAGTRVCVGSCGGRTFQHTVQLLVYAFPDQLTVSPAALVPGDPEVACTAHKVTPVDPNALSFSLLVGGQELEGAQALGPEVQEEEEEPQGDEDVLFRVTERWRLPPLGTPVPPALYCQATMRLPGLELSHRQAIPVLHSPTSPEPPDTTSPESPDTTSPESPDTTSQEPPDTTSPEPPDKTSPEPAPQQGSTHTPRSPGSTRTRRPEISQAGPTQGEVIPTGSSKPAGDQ

mouse MAdCAM protein = target: T2, mouse MAdCAM protein (mouse, UniProt Q61826 22-365, limits assumed); assay: Octet
T2 construct: also called recombinant mouse MAdCAM-1; mMAdCAM-1
T2 sequence (looked up): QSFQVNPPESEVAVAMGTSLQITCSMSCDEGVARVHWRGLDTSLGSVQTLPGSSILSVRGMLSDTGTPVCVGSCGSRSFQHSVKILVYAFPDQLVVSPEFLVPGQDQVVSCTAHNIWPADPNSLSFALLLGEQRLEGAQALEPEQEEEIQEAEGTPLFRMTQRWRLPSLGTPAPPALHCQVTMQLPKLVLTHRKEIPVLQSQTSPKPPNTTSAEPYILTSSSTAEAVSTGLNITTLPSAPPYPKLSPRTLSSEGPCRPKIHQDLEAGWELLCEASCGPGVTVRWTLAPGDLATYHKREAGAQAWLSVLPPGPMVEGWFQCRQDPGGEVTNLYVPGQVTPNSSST

[1] = target: T3, human MAdCAM expressed on cells (human, UniProt Q13477 19-382); assay: cell binding
T3 construct: whole, on cells; also called MADCAM1
T3 sequence (looked up): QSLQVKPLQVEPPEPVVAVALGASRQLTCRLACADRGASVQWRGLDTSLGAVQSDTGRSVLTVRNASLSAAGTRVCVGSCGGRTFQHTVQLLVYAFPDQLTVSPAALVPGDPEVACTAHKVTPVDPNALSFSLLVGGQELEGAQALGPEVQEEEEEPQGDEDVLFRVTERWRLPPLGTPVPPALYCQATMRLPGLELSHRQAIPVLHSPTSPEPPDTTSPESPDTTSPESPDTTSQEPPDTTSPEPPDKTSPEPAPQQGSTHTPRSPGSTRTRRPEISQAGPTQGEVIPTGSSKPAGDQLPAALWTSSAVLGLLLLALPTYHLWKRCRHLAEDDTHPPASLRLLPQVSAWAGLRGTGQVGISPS

[2] = target: T4, mouse MAdCAM expressed on cells (mouse, UniProt Q61826 22-405); assay: cell binding
T4 construct: whole, on cells
T4 sequence (looked up): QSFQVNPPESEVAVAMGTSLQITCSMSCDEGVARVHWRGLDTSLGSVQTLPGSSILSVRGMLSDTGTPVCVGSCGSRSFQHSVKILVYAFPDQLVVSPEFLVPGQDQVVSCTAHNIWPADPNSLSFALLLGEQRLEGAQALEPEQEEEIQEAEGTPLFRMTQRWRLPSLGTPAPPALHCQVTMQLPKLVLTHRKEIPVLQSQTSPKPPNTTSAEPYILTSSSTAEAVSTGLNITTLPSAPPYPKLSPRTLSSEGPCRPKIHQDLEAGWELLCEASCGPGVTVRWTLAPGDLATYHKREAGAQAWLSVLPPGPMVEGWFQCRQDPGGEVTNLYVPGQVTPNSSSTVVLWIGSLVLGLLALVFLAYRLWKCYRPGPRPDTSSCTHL

CD25 = target: T5, CD25 (Homo sapiens (Human), UniProt P01589 22-240); assay: ELISA, plate-bound CD25
T5 construct: also called IL-2R alpha chain
T5 sequence: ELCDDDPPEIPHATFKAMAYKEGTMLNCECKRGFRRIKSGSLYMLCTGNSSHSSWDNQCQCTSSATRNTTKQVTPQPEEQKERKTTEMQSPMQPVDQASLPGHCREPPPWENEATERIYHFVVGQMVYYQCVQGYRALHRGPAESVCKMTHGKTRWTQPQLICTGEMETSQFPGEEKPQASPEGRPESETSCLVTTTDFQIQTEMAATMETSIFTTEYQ
Experimental: An immunosorbent plate was coated with CD25 at a concentration of 0.5 μg/mL in PBS pH 7.4, 75 ul/well, and incubated overnight at 4° C. Wells were washed with PBS pH 7.4 containing 0.05% Tween-20 (wash buffer) three times, and then blocked with 200 ul/well 1% BSA in PBS pH 7.4 (block buffer) for two hours at room temperature. After three washes with wash buffer IL-2M molecules of Example 12 were diluted to eleven—two fold serial dilution in PBS containing 1% BSA and 0.05% Tween-20 (assay buffer) with 2 nM being the highest concentration. The diluted material was added to the CD25 coated plate at 75 ul/well for 1 hour at room temperature. After three washes with wash buffer, a goat biotinylated anti-IL-2 polyclonal antibody, diluted to 0.05 μg/mL in assay buffer, was added to the plate at 75 ul/well for 1 hr at room temperature. After three washes with wash buffer high sensitivity streptavidin HRP diluted in assay buffer at 1:5000 was added to the plate at 75 ul/well for 15 minutes at room temperature. After three washes with wash buffer and 1 wash with wash buffer (with no tween-20), the assay was developed with TMB, and stopped with 1N HCL. OD 450 nm was measured. The experiment included appropriate controls for non-specific binding of IL-2M molecules to the plate/block in the absence of CD25 and a negative control molecule that is unable to bind CD25.

| Binder | binding result (human MAdCAM protein) | binding result (mouse MAdCAM protein) | binding result [1] | binding result [2] | EC50 (CD25) [nM] |
| --- | --- | --- | --- | --- | --- |
| MAdCAM antibody Clone ID 20 of Table 6 (scFv) (scFv) scFv: EVQLLESGGGLVQPGGSLRLSCAASGFTFDDYAMHWVRQAPGKGLEWVSYIDTSSSHLYYADSVKGRFTISRDNSKNTLYLQMNSLRAEDTAVYYCARDEAAAGYYGMDVWGQGTTVTVSSGGGGSGGGGSGGGGSGGGGSDIQMTQSPSSLSASVGDRVTITCQAGQDISNYLNWYQQKPGKAPKLLIYDASNLETGVPSRFSGSGSGTDFTLTISSLQPEDFATYYCQQTYSTPITFGQGTKLEIK | binds | no binding | binds | no binding |  |
| MAdCAM antibody Clone ID 6 of Table 6 (scFv) (scFv, also called Antibody Clone 6) scFv: EVQLLESGGGLVQPGGSLRLSCAASGFTFNNYAFHWVRQAPGKGLEWVSRINSYGTSTTYADSVKGRFTISRDNSKNTLYLQMNSLRAEDTAVYYCAREGPVAGYWYFDLWGQGTLVTVSSGGGGSGGGGSGGGGSGGGGSDIQMTQSPSSLSASVGDRVTITCRASQIIGTNLAWYQQKPGKAPKLLIYGASSLQSGVPSRFSGSGSGTDFTLTISSLQPEDFATYYCQQSYRLPFTFGQGTKVEIK | binds | no binding | binds | no binding |  |
| MAdCAM antibody Clone ID 5 of Table 6 (scFv) (scFv) scFv: EVQLLESGGGLVQPGGSLRLSCAASGFTFSSYWMHWVRQAPGKGLEWVSSISPGGSNIDYADSVKGRFTISRDNSKNTLYLQMNSLRAEDTAVYYCAREVQLSHYDYWGQGTLVTVSSGGGGSGGGGSGGGGSGGGGSDIQMTQSPSSLSASVGDRVTITCRASQGISNSLAWYQQKPGKAPKLLIYGASSLQSGVPSRFSGSGSGTDFTLTISSLQPEDFATYYCQQANSFPFTFGQGTKVEIK | binds | binds | binds | binds |  |
| human IL-2M fused N-terminally to human IgG1 Fc domain (SEQ ID NO: 57) (Fc fusion, also called IL-2 N88D V69A, Q74P-G4Sx4-Fc) APTSSSTKKTQLQLEHLLLDLQMILNGINNYKNPKLTRMLTFKFYMPKKATELKHLQCLEEELKPLEEALNLAPSKNFHLRPRDLISDINVIVLELKGSETTFMCEYADETATIVEFLNRWITFSQSIISTLTGGGGSGGGGSGGGGSGGGGSDKTHTCPPCPAPEAAGAPSVFLFPPKPKDTLMISRTPEVTCVVVDVSHEDPEVKFNWYVDGVEVHNAKTKPREEQYNSTYRVVSVLTVLHQDWLNGKEYKCKVSNKALPAPIEKTISKAKGQPREPQVYTLPPSREEMTKNQVSLTCLVKGFYPSDIAVEWESNGQPENNYKTTPPVLDSDGSFFLYSKLTVDKSRWQQGNVFSCSVMHEALHNHYTQKSLSLSPG |  |  |  |  | < 1 |
| IL-2M SEQ ID NO: 54 (Fc fusion, also called IL-2 L56I N88D V69A, Q74P, C125S-G4Sx4-Fc) APTSSSTKKTQLQLEHLLLDLQMILNGINNYKNPKLTRMLTFKFYMPKKATELKHIQCLEEELKPLEEALNLAPSKNFHLRPRDLISDINVIVLELKGSETTFMCEYADETATIVEFLNRWITFSQSIISTLTGGGGSGGGGSGGGGSGGGGSDKTHTCPPCPAPEAAGAPSVFLFPPKPKDTLMISRTPEVTCVVVDVSHEDPEVKFNWYVDGVEVHNAKTKPREEQYNSTYRVVSVLTVLHQDWLNGKEYKCKVSNKALPAPIEKTISKAKGQPREPQVYTLPPSREEMTKNQVSLTCLVKGFYPSDIAVEWESNGQPENNYKTTPPVLDSDGSFFLYSKLTVDKSRWQQGNVFSCSVMHEALHNHYTQKSLSLSPG |  |  |  |  | < 1 |
| IL-2M SEQ ID NO: 53 (Fc fusion, also called IL-2 L53I N88D V69A, Q74P, C125S-G4Sx4-Fc) APTSSSTKKTQLQLEHLLLDLQMILNGINNYKNPKLTRMLTFKFYMPKKATEIKHLQCLEEELKPLEEALNLAPSKNFHLRPRDLISDINVIVLELKGSETTFMCEYADETATIVEFLNRWITFSQSIISTLTGGGGSGGGGSGGGGSGGGGSDKTHTCPPCPAPEAAGAPSVFLFPPKPKDTLMISRTPEVTCVVVDVSHEDPEVKFNWYVDGVEVHNAKTKPREEQYNSTYRVVSVLTVLHQDWLNGKEYKCKVSNKALPAPIEKTISKAKGQPREPQVYTLPPSREEMTKNQVSLTCLVKGFYPSDIAVEWESNGQPENNYKTTPPVLDSDGSFFLYSKLTVDKSRWQQGNVFSCSVMHEALHNHYTQKSLSLSPG |  |  |  |  | < 1 |

Results, then the binder that gave them:

| binding result (human MAdCAM protein) | binding result (mouse MAdCAM protein) | binding result [1] | binding result [2] | EC50 (CD25) [nM] | Binder |
| --- | --- | --- | --- | --- | --- |
| binds | no binding | binds | no binding |  | MAdCAM antibody Clone ID 23 of Table 6 (scFv) (scFv) scFv: EVQLLESGGGLVQPGGSLRLSCAASGFTFSSYAMHWVRQAPGKGLEWVSGISGSGGSAYYADSVKGRFTISRDNSKNTLYLQMNSLRAEDTAVYYCATSQAPVDYYYYGMDVWGQGTTVTVSSGGGGSGGGGSGGGGSGGGGSDIQMTQSPSSLSASVGDRVTITCRASQSISSWLAWYQQKPGKAPKLLIYAASNLQRGVPSRFSGSGSGTDFTLTISSLQPEDFATYYCQQSYSIPITFGQGTKVEIK |
| binds | binds | binds | binds |  | MAdCAM antibody Clone ID 9 of Table 6 (scFv) (scFv) scFv: EVQLLESGGGLVQPGGSLRLSCAASGFTFSDYYMNWVRQAPGKGLEWVSVIGESGGSTYYADSVKGRFTISRDNSKNTLYLQMNSLRAEDTAVYYCAADPVSRWPKHGGGDYWGQGTLVTVSSGGGGSGGGGSGGGGSGGGGSDIQMTQSPSSLSASVGDRVTITCRASQGISSSLAWYQQKPGKAPKLLIYAASTLQSGVPSRFSGSGSGTDFTLTISSLQPEDFATYYCQQSYSTPWTFGQGTKVEIK |
| binds | no binding | binds | no binding |  | MAdCAM antibody Clone ID 19 of Table 6 (scFv) (scFv) scFv: EVQLLESGGGLVQPGGSLRLSCAASGFTFDDYAMHWVRQAPGKGLEWVSGISWNSGSIGYADSVKGRFTISRDNSKNTLYLQMNSLRAEDTAVYYCAKDIVAAGHYYYGMDVWGQGTTVTVSSGGGGSGGGGSGGGGSGGGGSDIQMTQSPSSLSASVGDRVTITCQASQDISNYLNWYQQKPGKAPKLLIYDASNLETGVPSRFSGSGSGTDFTLTISSLQPEDFATYYCQQSYSTPLTFGGGTKVEIK |
| binds | binds | binds | binds |  | MAdCAM antibody Clone ID 7 of Table 6 (scFv) (scFv) scFv: QVQLVQSGAEVKKPGASVKVSCKASGYTFTGYHIHWVRQAPGQGLEWMGIINPSGGSTIYAQKFQGRVTMTRDTSTSTVYMELSSLRSEDTAVYYCAKDWSSWYLGPFDYWGQGTLVTVSSGGGGSGGGGSGGGGSGGGGSDIQMTQSPSSLSASVGDRVTITCRASQNISSSLNWYQQKPGKAPKLLIYAASSLQSGVPSRFSGSGSGTDFTLTISSLQPEDFATYYCQQSYTTPYTFGQGTKVEIK |

Reference: US20200392228A1 (PANDION OPERATIONS, published 2020)
